Molecular target: the molecule itself
Assay: crystal structure

B1: FolM alternative dihydrofolate reductase 1 from Brucella suis (enzyme)
chain: MLNDPEARMVANCPVLVTGGARRIGKAIVEDLASHGFPVAIHCNRSLDEGEAIANRINDSGGNACVVQADLEGDVRGLVKQASDRIGPIRLLVNNASLFQEDKVGALDMALWDRHFAVHLKTPVILAEDMRKALPEDQDGLVVNIIDQRVWKLNPQFFSYTLSKSALWNATRTLAQALAPRIRVNAIAPGPTLPSERQRPEDFERQVSKLPLQRAPELPEFGRTVRYFWENRSITGQMIALDGGQHLAWETPDIAGITE
notes: also called BsFolM; His-BsFolM
stoichiometry N: 4

B2: FolM alternative dihydrofolate reductase 1 from Brucella canis (enzyme)
chain: MVLNDPEARMVANCPVLVTGGARRIGKAIVEDLASHGFPVAIHCNRSLDEGEAIANRINDSGGNACVVQADLEGDVRGLVKQASDRIGPIRLLVNNASLFQEDKVGALDMALWDRHFAVHLKTPVILAEDMRKALPEDQDGLVVNIIDQRVWKLNPQFFSYTLSKTALWNATRTLAQALAPRIRVNAIAPGPTLPSERQRPEDFERQVSKLPLQRAPELPEFGRTVRYFWENRSITGQMIALDGGQHLAWETPDIAELPNK
notes: also called BcFolM; His-BcFolM
stoichiometry N: 4

Source: article PMC8725004, “Crystal structures of FolM alternative dihydrofolate reductase 1 from Brucella suis and Brucella canis” (Acta Crystallographica. Section F, Structural Biology …, 2022)
